# Patent US20230256092A1 (SHIONOGI, published 2023)
# Read-outs that look alike come from different tables or passages of the source.
# T1: N-ter hCCR4-hCCR8 (human)
# T1 construct: chimera on Expi293 cells; also called human CCR8 with the N-terminal region substituted with that of human CCR4
# T1 chain: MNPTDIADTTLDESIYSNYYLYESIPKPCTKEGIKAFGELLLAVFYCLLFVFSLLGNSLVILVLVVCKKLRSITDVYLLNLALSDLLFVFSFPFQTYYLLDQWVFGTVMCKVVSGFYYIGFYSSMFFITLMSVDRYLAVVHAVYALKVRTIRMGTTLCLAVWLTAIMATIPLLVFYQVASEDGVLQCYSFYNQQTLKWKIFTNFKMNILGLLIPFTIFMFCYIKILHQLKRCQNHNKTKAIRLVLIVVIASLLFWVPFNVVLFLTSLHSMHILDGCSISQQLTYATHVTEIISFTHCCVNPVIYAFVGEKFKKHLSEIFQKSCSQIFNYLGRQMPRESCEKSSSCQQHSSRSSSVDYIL
# T2: human CCR4 (human, UniProt P51679 1-360)
# T2 construct: full length, on Expi293 cells; also called hCCR4
# T2 sequence: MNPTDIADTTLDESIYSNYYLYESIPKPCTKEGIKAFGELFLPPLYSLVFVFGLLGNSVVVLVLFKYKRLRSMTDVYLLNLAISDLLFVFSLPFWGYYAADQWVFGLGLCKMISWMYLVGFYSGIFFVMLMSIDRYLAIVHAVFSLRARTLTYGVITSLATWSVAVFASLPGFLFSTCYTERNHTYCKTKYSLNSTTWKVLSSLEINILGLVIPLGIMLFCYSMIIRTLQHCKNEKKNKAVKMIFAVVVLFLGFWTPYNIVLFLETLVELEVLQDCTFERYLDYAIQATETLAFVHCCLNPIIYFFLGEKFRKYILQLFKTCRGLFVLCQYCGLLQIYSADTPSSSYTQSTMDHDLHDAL
# T3: mouse CCR8 (mouse, UniProt P56484 1-353)
# T3 construct: full length, on Expi293 cells; also called mCCR8
# T3 sequence: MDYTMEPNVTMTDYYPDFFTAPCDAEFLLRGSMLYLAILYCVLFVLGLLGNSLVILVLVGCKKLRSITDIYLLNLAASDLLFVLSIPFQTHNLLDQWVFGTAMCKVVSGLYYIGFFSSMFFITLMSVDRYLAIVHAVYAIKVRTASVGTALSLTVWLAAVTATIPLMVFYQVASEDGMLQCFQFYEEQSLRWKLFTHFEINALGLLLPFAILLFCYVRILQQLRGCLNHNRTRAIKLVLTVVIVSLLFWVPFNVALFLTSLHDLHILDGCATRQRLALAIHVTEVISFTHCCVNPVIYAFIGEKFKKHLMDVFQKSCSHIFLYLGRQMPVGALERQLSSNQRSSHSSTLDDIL
# Tests used:
# [1] = target: T4, human CCR8 (human, UniProt P51685 1-355); assay: cell-based or functional assay
# [2] = target: T4, human CCR8; assay: cell-based or functional assay; remark: listed apart in the source
# [3] = target: T4, human CCR8; assay: cell-based or functional assay; remark: listed apart in the source
# [4] = target: T5, loop1 hCCR4-hCCR8 (human, UniProt P51685 1-355); assay: FCM, Expi293 transfectants; Δ = significantly reduced binding activity vs wild-type hCCR8
# T5 construct: chimera on Expi293 cells; hCCR8 94-107 replaced; also called loop1-human CCR4-substituted human CCR8
# [5] = target: T6, loop2 hCCR4-hCCR8 (human, UniProt P51685 1-355); assay: as above
# T6 construct: chimera on Expi293 cells; hCCR8 172-202 replaced; also called loop2-human CCR4-substituted human CCR8
# [6] = target: T4, human CCR8; assay: cell-based or functional assay; remark: listed apart in the source
# [7] = target: T7, hCCR8 (Y17A) (human, UniProt P51685 1-355); assay: flow cytometry on Expi293 transfectants
# T7 construct: also called mutant in which Y at position 17 of human CCR8 is substituted for A
# [8] = target: T1, N-ter hCCR4-hCCR8; assay: flow cytometry on Expi293 transfectants
# [9] = target: T2, human CCR4; assay: flow cytometry on Expi293 transfectants
# [10] = target: T3, mouse CCR8; assay: flow cytometry on Expi293 transfectants
# [11] = target: T8, loop3 hCCR4-hCCR8 (human, UniProt P51685 1-355); assay: FCM, Expi293 transfectants; blank cell = same binding activity as wild-type hCCR8
# T8 construct: chimera on Expi293 cells; hCCR8 264-280 replaced
"IC50 (nM), Ca2+ influx by 200 nM hCCL1 [1] [nM]","IC50 (nM), Ca2+ influx by 200 nM hCCL1 [2] [nM]",Binder,other results
0.16,–,"h10A11 (IGKV3-20/IGHV3-15 T94R) (antibody, V domains shown) VH: EVQLVESGGALVKPGGSLRLSCAASGFTFSTYALYWVRQAPGKGLEWVGRIRSKSNNYATYYADSVKDRFTISRDDSKNTLYLQMNSLKTEDTAVYYCTRARFYYSDYGYAMDYWGQGTLVTVSS VL: EIVLTQSPGTLSLSPGERATLSCRSSKSLLHSNGNTYLYWYQQKPGQAPRLLIYRMSNLASGIPDRFSGSGSGTDFTLTISRLEPEDFAVYYCMQHLEYPLTFGQGTKVEIKR",–
–,0.19,"humanized 10A11 mutant (IGKV3-20 N53Q, G29R/IGHV3-15 T94R) (antibody, V domains shown) VH: EVQLVESGGALVKPGGSLRLSCAASGFTFSTYALYWVRQAPGKGLEWVGRIRSKSNNYATYYADSVKDRFTISRDDSKNTLYLQMNSLKTEDTAVYYCTRARFYYSDYGYAMDYWGQGTLVTVSS VL: EIVLTQSPGTLSLSPGERATLSCRSSKSLLHSNRNTYLYWYQQKPGQAPRLLIYRMSQLASGIPDRFSGSGSGTDFTLTISRLEPEDFAVYYCMQHLEYPLTFGQGTKVEIKR",–
0.21,–,"h10A11 (IGKV2-40/IGHV3-73) (antibody, V domains shown) VH: EVQLVESGGGLVQPGGSLKLSCAASGFAFNTYALYWVRQASGKGLEWVGRIRSKSNNYATYYADSVKDRFTISRDDSKNTAYLQMNSLKTEDTAVYYCTRARFYYSDYGYAMDYWGQGTLVTVSS VL: DIVMTQTPLSLPVTPGEPASISCRSSKSLLHSNGNTYLYWYLQKPGQSPQLLIYRMSNLASGVPDRFSGSGSGTDFTLKISRVEAEDVGVYYCMQHLEYPLTFGQGTKLEIKR",–
–,0.12,"humanized 10A11 antibody (light chain variable region: IGKV4-1 N53Q+G29R/heavy chain variable region: IGHV3-15 T94R) (antibody, V domains shown) VH: EVQLVESGGALVKPGGSLRLSCAASGFTFSTYALYWVRQAPGKGLEWVGRIRSKSNNYATYYADSVKDRFTISRDDSKNTLYLQMNSLKTEDTAVYYCTRARFYYSDYGYAMDYWGQGTLVTVSS VL: DIVMTQSPDSLAVSLGERATINCRSSKSLLHSNRNTYLYWYQQKPGQPPKLLIYRMSQLASGVPDRFSGSGSGTDFTLTISSLQAEDVAVYYCMQHLEYPLTFGQGTKLEIKR",–
–,0.21,"humanized 10A11 mutant (IGKV3-20 N53Q, G29L/IGHV3-15 T94R) (antibody, V domains shown) VH: EVQLVESGGALVKPGGSLRLSCAASGFTFSTYALYWVRQAPGKGLEWVGRIRSKSNNYATYYADSVKDRFTISRDDSKNTLYLQMNSLKTEDTAVYYCTRARFYYSDYGYAMDYWGQGTLVTVSS VL: EIVLTQSPGTLSLSPGERATLSCRSSKSLLHSNLNTYLYWYQQKPGQAPRLLIYRMSQLASGIPDRFSGSGSGTDFTLTISRLEPEDFAVYYCMQHLEYPLTFGQGTKVEIKR",–
–,0.29,"humanized 10A11 mutant (IGKV3-20 N53Q, N28K/IGHV3-15 T94R) (antibody, V domains shown) VH: EVQLVESGGALVKPGGSLRLSCAASGFTFSTYALYWVRQAPGKGLEWVGRIRSKSNNYATYYADSVKDRFTISRDDSKNTLYLQMNSLKTEDTAVYYCTRARFYYSDYGYAMDYWGQGTLVTVSS VL: EIVLTQSPGTLSLSPGERATLSCRSSKSLLHSKGNTYLYWYQQKPGQAPRLLIYRMSQLASGIPDRFSGSGSGTDFTLTISRLEPEDFAVYYCMQHLEYPLTFGQGTKVEIKR",–

# Second part, the binder before the results:
Binder,"IC50 (nM), Ca2+ influx by 200 nM hCCL1 [1] [nM]","IC50 (nM), Ca2+ influx by 200 nM hCCL1 [2] [nM]",other results
"h10A11 (IGKV2-28/IGHV3-73) (antibody, V domains shown) VH: EVQLVESGGGLVQPGGSLKLSCAASGFAFNTYALYWVRQASGKGLEWVGRIRSKSNNYATYYADSVKDRFTISRDDSKNTAYLQMNSLKTEDTAVYYCTRARFYYSDYGYAMDYWGQGTLVTVSS VL: DIVMTQSPLSLPVTPGEPASISCRSSKSLLHSNGNTYLYWYLQKPGQSPQLLIYRMSNLASGVPDRFSGSGSGTDFTLKISRVEAEDVGVYYCMQHLEYPLTFGQGTKVEIKR",0.2,–,–
"h10A11 (IGKV1-39/IGHV3-15 T94R) (antibody, V domains shown) VH: EVQLVESGGALVKPGGSLRLSCAASGFTFSTYALYWVRQAPGKGLEWVGRIRSKSNNYATYYADSVKDRFTISRDDSKNTLYLQMNSLKTEDTAVYYCTRARFYYSDYGYAMDYWGQGTLVTVSS VL: DIQMTQSPSSLSASVGDRVTITCRSSKSLLHSNGNTYLYWYQQKPGKAPKLLIYRMSNLASGVPSRFSGSGSGTDFTLTISSLQPEDFATYYCMQHLEYPLTFGQGTKLEIKR",0.2,–,–
"h10A11 (IGKV2-40/IGHV3-15 T94R) (antibody, V domains shown) VH: EVQLVESGGALVKPGGSLRLSCAASGFTFSTYALYWVRQAPGKGLEWVGRIRSKSNNYATYYADSVKDRFTISRDDSKNTLYLQMNSLKTEDTAVYYCTRARFYYSDYGYAMDYWGQGTLVTVSS VL: DIVMTQTPLSLPVTPGEPASISCRSSKSLLHSNGNTYLYWYLQKPGQSPQLLIYRMSNLASGVPDRFSGSGSGTDFTLKISRVEAEDVGVYYCMQHLEYPLTFGQGTKLEIKR",0.3,–,–
"h10A11 (IGKV1-39/IGHV3-73) (antibody, V domains shown) VH: EVQLVESGGGLVQPGGSLKLSCAASGFAFNTYALYWVRQASGKGLEWVGRIRSKSNNYATYYADSVKDRFTISRDDSKNTAYLQMNSLKTEDTAVYYCTRARFYYSDYGYAMDYWGQGTLVTVSS VL: DIQMTQSPSSLSASVGDRVTITCRSSKSLLHSNGNTYLYWYQQKPGKAPKLLIYRMSNLASGVPSRFSGSGSGTDFTLTISSLQPEDFATYYCMQHLEYPLTFGQGTKLEIKR",0.16,–,–
"h10A11 (IGKV1-16/IGHV3-15 T94R) (antibody, V domains shown) VH: EVQLVESGGALVKPGGSLRLSCAASGFTFSTYALYWVRQAPGKGLEWVGRIRSKSNNYATYYADSVKDRFTISRDDSKNTLYLQMNSLKTEDTAVYYCTRARFYYSDYGYAMDYWGQGTLVTVSS VL: DIQMTQSPSSLSASVGDRVTITCRSSKSLLHSNGNTYLYWFQQKPGKAPKSLIYRMSNLASGVPSRFSGSGSGTDFTLTISSLQPEDFATYYCMQHLEYPLTFGQGTKLEIKR",0.7,–,–
"2-7B (antibody, V domains shown) VH: EVQLVESDGGLVQPGRSLKLSCAASGFTFSDYYMAWVRQAPTKGLEWVATITYDVYSTYYRDSVKGRFTISRDNAKSTLYLQMDSLRSEDTATYYCARHGGDGYNSGNWFAYWGQGTLVTVSS VL: DIVLTQSPALAVSLGQRATISCRASQSVSISRYNIMHWYQQKPGQQPKLLIYRASNLASGIPARFSGSGSGTDFTLTINPVQADDIATYYCQQSRESPPTFGGGTKLELKR",–,–,"IC50 (nM), Ca2+ influx by 200 nM hCCL1 [3]: 0.23 nM"
"27G1 (antibody, V domains shown, mouse hybridoma antibody, purified) VH: EVQLVESGGRLVQPKGSLKLSCAASGFAFNTYAMYWIRQAPGKGLEWVARIRSKSNNYATYYADSVKDRFTISRDDSQSMLYLQMNNLKTEDTAMYYCVRARFYYSDYGYAMDYWGQGTSVTVSS VL: DIVMTQAAPSVPVTPGESVSISCRSSKSLLHSNGNTYLYWFLQRPGQSPQLLIYRMSNLASGVPDRFSGSGSGTAFTLRISRVEAEDVGVYYCMQHLEYPLTFGAGTKLELKR",–,–,"binding result [4]: binds; binding result [5]: binds; Neutralizing activity IC50 (nM), Ca2+ influx by 100 nM hCCL1 [6]: 0.09 nM; binding result [7]: no binding; binding result [8]: no binding; binding result [9]: no binding; binding result [10]: no binding; binding result [11]: binds"
